# Measured values taken from patent US20220119534A1 (DRAGONFLY THERAPEUTICS, published 2022).
# “And” between values parts separate entries of the source, which are not always exact repeats. Identical values can stand only once.
# T1: mFc-hNKG2D (recombinant mFc-tagged human NKG2D dimer) (human, UniProt P26718 73-216)
# T1 construct: extracellular domain; Made in house; not shown: mouse Fc tag
# T1 sequence (looked up): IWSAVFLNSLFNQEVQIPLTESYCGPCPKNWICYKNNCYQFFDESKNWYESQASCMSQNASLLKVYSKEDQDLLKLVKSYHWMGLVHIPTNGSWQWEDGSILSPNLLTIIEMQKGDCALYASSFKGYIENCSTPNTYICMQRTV
# T2: Human CLEC12A expressed on cells (Ba/F3-hCLEC12A, PL21, HL60) (human, UniProt Q5QGZ9 1-265)
# T2 construct: Ba/F3 cells transduced with human CLEC12A; PL21 and HL60 AML lines express it endogenously; also called cell surface expressed CLEC12A
# T2 sequence: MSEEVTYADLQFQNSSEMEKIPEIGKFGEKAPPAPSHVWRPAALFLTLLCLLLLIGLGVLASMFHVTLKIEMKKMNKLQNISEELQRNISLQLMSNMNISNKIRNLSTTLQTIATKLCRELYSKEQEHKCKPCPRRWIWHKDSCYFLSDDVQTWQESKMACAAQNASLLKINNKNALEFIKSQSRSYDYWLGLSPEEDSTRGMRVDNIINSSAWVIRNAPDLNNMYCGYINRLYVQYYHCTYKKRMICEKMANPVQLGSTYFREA
# T3: Human CLEC12A-His (recombinant, K244 WT) (human, UniProt Q5QGZ9 65-265)
# T3 construct: Made in house (Dragonfly Tx); also called hCLEC12A; hCLEC12A-His; not shown: His tag
# T3 sequence: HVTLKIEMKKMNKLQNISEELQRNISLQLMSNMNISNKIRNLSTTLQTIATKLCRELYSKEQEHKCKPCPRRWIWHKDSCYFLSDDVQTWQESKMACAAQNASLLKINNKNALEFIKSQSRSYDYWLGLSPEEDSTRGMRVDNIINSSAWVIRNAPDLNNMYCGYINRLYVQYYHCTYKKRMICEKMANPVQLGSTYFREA
# T4: human CLEC12A expressed on cells (human, UniProt Q5QGZ9 1-265)
# T4 construct: Transduced isogenic cells or endogenous expression on AML cells; also called RMA-hCLEC12A; Ba/F3-hCLEC12A
# T4 sequence: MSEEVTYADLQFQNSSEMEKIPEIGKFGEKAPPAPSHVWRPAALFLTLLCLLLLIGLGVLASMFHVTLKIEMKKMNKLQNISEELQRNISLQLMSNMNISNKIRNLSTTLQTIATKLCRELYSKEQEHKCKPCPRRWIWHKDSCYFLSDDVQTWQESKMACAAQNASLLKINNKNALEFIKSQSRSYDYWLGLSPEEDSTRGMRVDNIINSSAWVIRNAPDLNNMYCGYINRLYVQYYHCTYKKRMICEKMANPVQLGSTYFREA
# T5: recombinant human CD32a R131 (human, UniProt P12318 36-218, limits assumed, biotinylated)
# T5 construct: also called FcγRIIa R131
# T5 sequence (looked up): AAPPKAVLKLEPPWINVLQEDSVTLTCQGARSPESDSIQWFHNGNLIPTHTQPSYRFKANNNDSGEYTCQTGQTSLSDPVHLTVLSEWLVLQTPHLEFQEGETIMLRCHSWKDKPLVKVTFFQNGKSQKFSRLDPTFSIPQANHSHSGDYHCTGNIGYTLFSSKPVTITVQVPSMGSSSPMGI
# Key:
# [1] = biological target: T6, Human CD16a V158 (FcγRIIIa V158) (human, UniProt P08637 17-208, biotinylated); test: SPR; after pH 8, 40C, 2 wks
# T6 construct: Bought recombinant receptor; also called hCD16aV; hFcγRIIIa V158
# [2] = biological target: T1, mFc-hNKG2D (recombinant mFc-tagged …); test: SPR; after 4 wks 40C in CST pH 7.0
# [3] = biological target: T6, Human CD16a V158 (FcγRIIIa V158); test: SPR; after 4 wks 40C in CST pH 7.0
# [4] = biological target: T2, Human CLEC12A expressed on cells …; test: flow cytometry on Ba/F3-hCLEC12A cells
# [5] = biological target: T3, Human CLEC12A-His (recombinant, K244 WT); test: SPR, two-state fit (kd1); control sample
# Protocol: (§1) Briefly, human Fc specific antibodies were covalently immobilized at a density ˜8000-10000 resonance units (RU) on carboxy methyl dextran matrix of a CM5 biosensor chip via amine-coupling chemistry to create an anti-hFc IgG chip. […] Association was monitored for 300 seconds and dissociation was monitored for 600 seconds. Surfaces were regenerated between cycles with three pulses of 10 mM glycine-HCl, pH 1.7 injected for 20 seconds at 100 μl/min. HBS-EP+ (1×) with 0.1 mg/ml BSA was used as running buffer throughout the experiment. Experiments were performed at physiological temperature of 37° C. To obtain kinetic rate constants and overall binding affinity, double-referenced data were fit to a two-state kinetic model using Biacore 8K Insight Evaluation software (Cytiva).
# [6] = biological target: T3, Human CLEC12A-His (recombinant, K244 WT); test: SPR, two-state fit (ka1); after pH 8, 40C, 2 wks
# Protocol: as §1
# [7] = biological target: T3, Human CLEC12A-His (recombinant, K244 WT); test: SPR, two-state fit (kd1); after pH 5.0, 40C, 2 wks
# Protocol: as §1
# [8] = biological target: T4, human CLEC12A expressed on cells; test: flow cytometry, HL60
# [9] = biological target: T5, recombinant human CD32a R131; test: SPR 25C, steady state
# [10] = biological target: T5, recombinant human CD32a R131; test: SPR 25C, steady state, average
# T6 sequence (P08637 17-208 F176V limits assumed): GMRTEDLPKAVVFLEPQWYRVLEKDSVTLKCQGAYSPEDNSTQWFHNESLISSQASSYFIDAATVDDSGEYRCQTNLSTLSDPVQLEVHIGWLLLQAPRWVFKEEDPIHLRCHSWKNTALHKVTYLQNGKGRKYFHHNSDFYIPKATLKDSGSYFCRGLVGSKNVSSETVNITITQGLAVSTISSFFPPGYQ
Kd [1] [nM],koff [1] [s⁻¹],kon [1] [M⁻¹ s⁻¹],Kd [2] [nM],koff [2] [s⁻¹],kon [2] [M⁻¹ s⁻¹],Kd [3] [nM],koff [3] [s⁻¹],kon [3] [M⁻¹ s⁻¹],EC50 [4] [nM],koff [5] [s⁻¹],kon [6] [M⁻¹ s⁻¹],koff [7] [s⁻¹],EC50 [8] [nM],Kd [9],Kd [10] [nM],Binder
350,0.0279,79400,791,0.126,160000,342,0.0284,83100,4.02,0.042,9.93e+06,0.0427,,,,"AB0089 TriNKET (bispecific antibody, human IgG1, kappa, F3' format heterodimer of three chains; human IgG1 Fc with EW-RVT and Y349C/S354C mutations; also called AB0089 Lot AB0089-002; CLEC12A TriNKET AB0089) QLQLQESGPGLVKPSETLSLTCTVSGFSLTNYGLHWIRQPPGKCLEWIGVIWVGGATDYNPSLKSRVTISVDTSKNQFSLKLSSVQAADTAVYYCAKGDYGDTLDYWGQGTLVTVSSGGGGSGGGGSGGGGSGGGGSDIQMTQSPSSLSASVGDRVTITCHASQNINFWLSWYQQKPGKAPKLLIYEASNLHTGVPSRFSGSGSGTDFTLTISSLQPEDFATYYCQQSHSYPLTFGCGTKLEIKGSDKTHTCPPCPAPELLGGPSVFLFPPKPKDTLMISRTPEVTCVVVDVSHEDPEVKFNWYVDGVEVHNAKTKPREEQYNSTYRVVSVLTVLHQDWLNGKEYKCKVSNKALPAPIEKTISKAKGQPREPRVYTLPPCRDELTKNQVSLTCLVKGFYPSDIAVEWESNGQPENNYKTTPPVLVSDGSFTLYSKLTVDKSRWQQGNVFSCSVMHEALHNHYTQKSLSLSPG heavy: EVQLVESGGGLVKPGGSLRLSCAASGFTFSSYSMNWVRQAPGKGLEWVSSISSSSSYIYYADSVKGRFTISRDNAKNSLYLQMNSLRAEDTAVYYCARGAPIGAAAGWFDPWGQGTLVTVSSASTKGPSVFPLAPSSKSTSGGTAALGCLVKDYFPEPVTVSWNSGALTSGVHTFPAVLQSSGLYSLSSVVTVPSSSLGTQTYICNVNHKPSNTKVDKKVEPKSCDKTHTCPPCPAPELLGGPSVFLFPPKPKDTLMISRTPEVTCVVVDVSHEDPEVKFNWYVDGVEVHNAKTKPREEQYNSTYRVVSVLTVLHQDWLNGKEYKCKVSNKALPAPIEKTISKAKGQPREPQVCTLPPSRDELTENQVSLTCLVKGFYPSDIAVEWESNGQPENNYKTTPPVLDSDGSFFLYSWLTVDKSRWQQGNVFSCSVMHEALHNHYTQKSLSLSPG light: DIQMTQSPSSVSASVGDRVTITCRASQGISSWLAWYQQKPGKAPKLLIYAASSLQSGVPSRFSGSGSGTDFTLTISSLQPEDFATYYCQQGVSFPRTFGGGTKVEIKRTVAAPSVFIFPPSDEQLKSGTASVVCLLNNFYPREAKVQWKVDNALQSGNSQESVTEQDSKDSTYSLSSTLTLSKADYEKHKVYACEVTHQGLSSPVTKSFNRGEC"
,,,,,,,,,,,,,2.2,1400 nM and 1300 nM and 1700 nM and 1200 nM,1400,"F3'-1602 TriNKET (other, CLEC12A scFv-Fc, NKG2D A49MI Fab-Fc, human IgG1 Fc; also called AB0237) QLQLQESGPGLVKPSETLSLTCTVSGFSLTNYGLHWIRQPPGKCLEWIGVIWSGGKTDYNPSLKSRVTISKDTSKNQFSLKLSSVQAADTAVYYCAKYDYDDSLDYWGQGTLVTVSSGGGGSGGGGSGGGGSGGGGSDIQMTQSPSSLSASVGDRVTITCHASQNINFWLSWYQQKPGKAPKLLIYEASNLHTGVPSRFSGSGSGTRFTLTISSLQPEDIATYYCQQSHSYPLTFGCGTKLEIKGSDKTHTCPPCPAPELLGGPSVFLFPPKPKDTLMISRTPEVTCVVVDVSHEDPEVKFNWYVDGVEVHNAKTKPREEQYNSTYRVVSVLTVLHQDWLNGKEYKCKVSNKALPAPIEKTISKAKGQPREPRVYTLPPCRDELTKNQVSLTCLVKGFYPSDIAVEWESNGQPENNYKTTPPVLVSDGSFTLYSKLTVDKSRWQQGNVFSCSVMHEALHNHYTQKSLSLSPG heavy: EVQLVESGGGLVKPGGSLRLSCAASGFTFSSYSMNWVRQAPGKGLEWVSSISSSSSYIYYADSVKGRFTISRDNAKNSLYLQMNSLRAEDTAVYYCARGAPIGAAAGWFDPWGQGTLVTVSSASTKGPSVFPLAPSSKSTSGGTAALGCLVKDYFPEPVTVSWNSGALTSGVHTFPAVLQSSGLYSLSSVVTVPSSSLGTQTYICNVNHKPSNTKVDKKVEPKSCDKTHTCPPCPAPELLGGPSVFLFPPKPKDTLMISRTPEVTCVVVDVSHEDPEVKFNWYVDGVEVHNAKTKPREEQYNSTYRVVSVLTVLHQDWLNGKEYKCKVSNKALPAPIEKTISKAKGQPREPQVCTLPPSRDELTENQVSLTCLVKGFYPSDIAVEWESNGQPENNYKTTPPVLDSDGSFFLYSWLTVDKSRWQQGNVFSCSVMHEALHNHYTQKSLSLSPG light: DIQMTQSPSSVSASVGDRVTITCRASQGISSWLAWYQQKPGKAPKLLIYAASSLQSGVPSRFSGSGSGTDFTLTISSLQPEDFATYYCQQGVSFPRTFGGGTKVEIKRTVAAPSVFIFPPSDEQLKSGTASVVCLLNNFYPREAKVQWKVDNALQSGNSQESVTEQDSKDSTYSLSSTLTLSKADYEKHKVYACEVTHQGLSSPVTKSFNRGEC"
